How the values were obtained:
Assay in all cases: cell-based or functional assay
[1] = biological target: HIV-1 Env of pseudovirus 0260.v5.c36 (HIV-1)
[2] = biological target: HIV-1 Env of pseudovirus HIV-16055-2.3 (HIV-1)
[3] = biological target: HIV-1 Env of pseudovirus CNE20 (HIV-1)
[4] = biological target: HIV-1 Env of pseudovirus ZM214M.PL15 (HIV-1)
[5] = biological target: HIV-1 Env of pseudovirus SC422661.8 (HIV-1)
[6] = biological target: HIV-1 Env of pseudovirus Ce1086_B2 (HIV-1)
[7] = biological target: HIV-1 Env of pseudovirus ZM233M.PB6 (HIV-1)
[8] = biological target: HIV-1 Env of pseudovirus 3365.v2.c2 (HIV-1)
[9] = biological target: HIV-1 Env of pseudovirus 62357_14_D3_4589 (HIV-1)
[10] = biological target: HIV-1 Env of pseudovirus 1054_07_TC4_1499 (HIV-1)
[11] = biological target: HIV-1 Env of pseudovirus ZM197M.PB7 (HIV-1)
[12] = biological target: HIV-1 Env of pseudovirus CNE30 (HIV-1)
[13] = biological target: HIV-1 Env of pseudovirus SC05_8C11_2344 (HIV-1)
[14] = biological target: HIV-1 Env of pseudovirus ZM53M.PB12 (HIV-1)
[15] = biological target: HIV-1 Env of pseudovirus CNE58 (HIV-1)
[16] = biological target: HIV-1 Env of pseudovirus Ce1176_A3 (HIV-1)
[17] = biological target: HIV-1 Env of pseudovirus Ce0393_C3 (HIV-1)
[18] = biological target: HIV-1 Env of pseudovirus ZM109F.PB4 (HIV-1)
[19] = biological target: HIV-1 Env of pseudovirus Du172.17 (HIV-1)
[20] = biological target: HIV-1 Env of pseudovirus Ce0682_E4 (HIV-1)
[21] = biological target: HIV-1 Env of pseudovirus Ce704809221_1B3 (HIV-1)
[22] = biological target: HIV-1 Env of pseudovirus 235-47 (HIV-1)
[23] = biological target: HIV-1 Env of pseudovirus BJOX025000.01.1 (HIV-1)
[24] = biological target: HIV-1 Env of pseudovirus C3347.c11 (HIV-1)
[25] = biological target: HIV-1 Env of pseudovirus BJOX028000.10.3 (HIV-1)
[26] = biological target: HIV-1 Env of pseudovirus X1254_c3 (HIV-1)
[27] = biological target: HIV-1 Env of pseudovirus X2088_c9 (HIV-1)

## 10-1074 (antibody)
[1]
  IC50, titer in TZM.bl cells: 0.099 µg/mL
  IC80, titer in TZM.bl cells: 0.16 µg/mL
[2]
  IC50, titer in TZM.bl cells: > 50 µg/mL
  IC80, titer in TZM.bl cells: > 50 µg/mL
[3]
  IC50, titer in TZM.bl cells: < 0.001 µg/mL
  IC80, titer in TZM.bl cells: 0.005 µg/mL
[4]
  IC50, titer in TZM.bl cells: 0.174 µg/mL
  IC80, titer in TZM.bl cells: 2.37 µg/mL
[5]
  IC50, titer in TZM.bl cells: 0.091 µg/mL
  IC80, titer in TZM.bl cells: 0.418 µg/mL
[6]
  IC50, titer in TZM.bl cells: > 50 µg/mL
  IC80, titer in TZM.bl cells: > 50 µg/mL
[7]
  IC50, titer in TZM.bl cells: 0.06 µg/mL
  IC80, titer in TZM.bl cells: 0.349 µg/mL
[8]
  IC50, titer in TZM.bl cells: 0.131 µg/mL
  IC80, titer in TZM.bl cells: 0.45 µg/mL
[9]
  IC50, titer in TZM.bl cells: > 50 µg/mL
  IC80, titer in TZM.bl cells: > 50 µg/mL
[10]
  IC50, titer in TZM.bl cells: 0.129 µg/mL
  IC80, titer in TZM.bl cells: 0.563 µg/mL
[11]
  IC50, titer in TZM.bl cells: > 50 µg/mL
  IC80, titer in TZM.bl cells: > 50 µg/mL
[12]
  IC50, titer in TZM.bl cells: 0.363 µg/mL
  IC80, titer in TZM.bl cells: 1.2 µg/mL
[13]
  IC50, titer in TZM.bl cells: 0.052 µg/mL
  IC80, titer in TZM.bl cells: 0.123 µg/mL
[14]
  IC50, titer in TZM.bl cells: > 50 µg/mL
  IC80, titer in TZM.bl cells: > 50 µg/mL
[15]
  IC50, titer in TZM.bl cells: 0.267 µg/mL
  IC80, titer in TZM.bl cells: 0.968 µg/mL
[16]
  IC50, titer in TZM.bl cells: 0.019 µg/mL
  IC80, titer in TZM.bl cells: 0.07 µg/mL
[17]
  IC50, titer in TZM.bl cells: > 50 µg/mL
  IC80, titer in TZM.bl cells: > 50 µg/mL
[18]
  IC50, titer in TZM.bl cells: > 50 µg/mL
  IC80, titer in TZM.bl cells: > 50 µg/mL
[19]
  IC50, titer in TZM.bl cells: 0.121 µg/mL
  IC80, titer in TZM.bl cells: 0.43 µg/mL
[20]
  IC50, titer in TZM.bl cells: > 50 µg/mL
  IC80, titer in TZM.bl cells: > 50 µg/mL
[21]
  IC50, titer in TZM.bl cells: 0.139 µg/mL
  IC80, titer in TZM.bl cells: 0.696 µg/mL

## N49P7 (antibody)
[1]
  neutralization IC50: 0.354 µg/mL
  neutralization IC80: 0.884 µg/mL
  neutralization MPI: 100
[2]
  neutralization IC50: 0.057 µg/mL
  neutralization IC80: 0.28 µg/mL
  neutralization MPI: 100
[3]
  neutralization IC50: 0.028 µg/mL
  neutralization IC80: 0.1 µg/mL
  neutralization MPI: 100
[4]
  neutralization IC50: 0.213 µg/mL
  neutralization IC80: 0.953 µg/mL
  neutralization MPI: 100
[22]
  neutralization IC50: 0.045 µg/mL
  neutralization IC80: 0.3 µg/mL
  neutralization MPI: 99
[5]
  neutralization IC50: 0.114 µg/mL
  neutralization IC80: 0.32 µg/mL
  neutralization MPI: 100
[23]
  neutralization IC50: 0.038 µg/mL
  neutralization IC80: 0.236 µg/mL
  neutralization MPI: 100
[6]
  neutralization IC50: 0.089 µg/mL
  neutralization IC80: 0.568 µg/mL
  neutralization MPI: 100
[7]
  neutralization IC50: 0.226 µg/mL
  neutralization IC80: 0.774 µg/mL
  neutralization MPI: 100
[8]
  neutralization IC50: 0.07 µg/mL
  neutralization IC80: 0.186 µg/mL
  neutralization MPI: 100
[24]
  neutralization IC50: 0.024 µg/mL
  neutralization IC80: 0.067 µg/mL
  neutralization MPI: 100
[9]
  neutralization IC50: 0.025 µg/mL
  neutralization IC80: 0.102 µg/mL
  neutralization MPI: 100
[10]
  neutralization IC50: 0.494 µg/mL
  neutralization IC80: 2.31 µg/mL
  neutralization MPI: 100
[11]
  neutralization IC50: 0.109 µg/mL
  neutralization IC80: 0.347 µg/mL
  neutralization MPI: 100
[12]
  neutralization IC50: 0.18 µg/mL
  neutralization IC80: 0.609 µg/mL
  neutralization MPI: 100
[25]
  neutralization IC50: 0.02 µg/mL
  neutralization IC80: 0.123 µg/mL
  neutralization MPI: 100
[26]
  neutralization IC50: 2.97 µg/mL
  neutralization IC80: 13.6 µg/mL
  neutralization MPI: 100
[13]
  neutralization IC50: 0.164 µg/mL
  neutralization IC80: 0.403 µg/mL
  neutralization MPI: 100
[14]
  neutralization IC50: 0.251 µg/mL
  neutralization IC80: 0.8 µg/mL
  neutralization MPI: 100
[15]
  neutralization IC50: 0.029 µg/mL
  neutralization IC80: 0.067 µg/mL
  neutralization MPI: 100
[16]
  neutralization IC50: 0.204 µg/mL
  neutralization IC80: 0.589 µg/mL
  neutralization MPI: 100
[17]
  neutralization IC50: 0.195 µg/mL
  neutralization IC80: 0.802 µg/mL
  neutralization MPI: 100
[18]
  neutralization IC50: 0.034 µg/mL
  neutralization IC80: 0.153 µg/mL
  neutralization MPI: 100
[19]
  neutralization IC50: 0.102 µg/mL
  neutralization IC80: 0.668 µg/mL
  neutralization MPI: 100
[20]
  neutralization IC50: 0.041 µg/mL
  neutralization IC80: 0.131 µg/mL
  neutralization MPI: 100
[21]
  neutralization IC50: 0.141 µg/mL
  neutralization IC80: 0.932 µg/mL
  neutralization MPI: 100
[27]
  neutralization IC50: 0.116 µg/mL
  neutralization IC80: 0.338 µg/mL
  neutralization MPI: 100

From patent publication US20230002480A1
